# From paper PMC9585510
# Assays:
# [1] = biological target: Marchantia polymorpha plant cysteine oxidase (MpPCO), with N-terminal His6-tag (Marchantia polymorpha)
# [2] = biological target: MpPCOc, Marchantia polymorpha plant cysteine oxidase with the N-terminal His6-tag removed (Marchantia polymorpha)
Molecule,"KM for the peptide substrate in steady-state kinetics of Nt-Cys oxidation (LC-MS; atmospheric O2, 25 °C, 50 mM bis-tris propane, 50 mM NaCl, 1 mM TCEP, pH 8.0; fitted with substrate inhibition) [1] [μM]","KM for the peptide substrate in steady-state kinetics of Nt-Cys oxidation (LC-MS; atmospheric O2, 25 °C, 50 mM bis-tris propane, 50 mM NaCl, 1 mM TCEP, pH 8.0) [2] [μM]"
"AtRAP2(2-15), 14-mer peptide representing the N-terminus of the A. thaliana ERF-VIIs RAP2.2 and RAP2.12",11,
CRMNKRLGKGETGL,,509
